Experimental data taken from paper PMC10663143, “CALEOSIN 1 interaction with AUTOPHAGY-RELATED PROTEIN 8 facilitates lipid droplet microautophagy in seedlings” (Plant Physiology, 2023).

Molecular target: T1, CALEOSIN 2 (CLO2), Cub fusion (Arabidopsis thaliana, UniProt Q9FLN9 1-243)
T1 construct: CALEOSIN 2 of Arabidopsis thaliana; the coding region was amplified and inserted into pMetYCgate; Bait; source: yeast split-ubiquitin fusion (pMetYCgate, S. cerevisiae THY.AP4)
Experiment: two-hybrid; mating-based split-ubiquitin system in yeast; Cub fusions as bait, NubG fusions as prey; quantitative β-galactosidase assay (Beta-Glo), activity normalized to a reference pair
Details: partners not purified

T1 sequence (Q9FLN9 whole entry, the tested form may be a part): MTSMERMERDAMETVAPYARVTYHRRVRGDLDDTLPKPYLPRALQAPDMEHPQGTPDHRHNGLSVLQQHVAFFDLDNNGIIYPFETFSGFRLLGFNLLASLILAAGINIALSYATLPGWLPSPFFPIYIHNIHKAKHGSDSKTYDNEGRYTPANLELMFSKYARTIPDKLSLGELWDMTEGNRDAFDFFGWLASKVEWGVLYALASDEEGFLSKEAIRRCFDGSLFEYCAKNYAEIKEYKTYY

fold weaker β-galactosidase activity than with CLO1, CLO3 and OLE1: 2 fold
B1: AUTOPHAGY-RELATED PROTEIN 8b (ATG8b), NubG fusion (natural protein, Arabidopsis thaliana, UniProt Q9XEB5 1-117, looked up)
chain: MEKNSFKLSNPLEMRMAESTRIRAKYPERVPVIVEKAGQSDVPDIDKKKYLVPADLTIGQFVYVVRKRIKLGAEKAIFVFVKNTLPPTAALMSAIYEEHKDEDGFLYMTYSGENTFG
notes: AUTOPHAGY-RELATED PROTEIN 8b of Arabidopsis thaliana; the coding region was amplified and inserted into pNXgate32-3HA; Prey; source: yeast split-ubiquitin fusion (pNXgate32-3HA, S. cerevisiae THY.AP5)
